# Measured values taken from ChEMBL document CHEMBL1156111, “Identification of the amino acid-AZT-phosphoramidase by affinity T7 phage display selection” (Bioorg Med Chem Lett, 2009).
# B1: Adenosine 5'-monophosphoramidase HINT1 (Homo sapiens), P49773 (protein)
# chain: MADEIAKAQVARPGGDTIFGKIIRKEIPAKIIFEDDRCLAFHDISPQAPTHFLVIPKKHISQISVAEDDDESLLGHLMIVGKKCAADLGLNKGYRMVVNEGSDGGQSVYHVHLHVLGGRQMHWPPG
# Substrate: Cc1cn([C@H]2C[C@H](N=[N+]=[N-])[C@@H](COP(=O)(O)NCc3c[nH]c4ccccc34)O2)c(=O)[nH]c1=O
# Assay: Hydrolysis activity of human HINT1 at pH 7.2 by continuous fluorescence assay
protein,measurement,value
B1,Km,981 µM
